Key:
[1] = biological target: T1, mouse FLT3 expressed on CHO-S cells (mouse, UniProt Q00342 28-1000); test: flow cytometry (iQue Screener PLUS) on CHO-S cells transiently expressing mouse FLT3; AF647 anti-human IgG (H+L) secondary; GeoMean RL1-H
T1 construct: whole, on cells
Protocol: (§1) The anti-FLT3 antibodies were incubated with the hamster CHO-S cell line transiently expressing human, cynomolgus or mouse FLT3 for 30 minutes at 4° C. The cells were washed twice and subsequently incubated for an additional 20 minutes with AF647-conjugated secondary anti-human IgG (H+L) antibody. After the washing step, antibody binding was detected using the high-throughput flow cytometer iQue Screener PLUS (Sartorius) measuring the GeoMean of AF647 signal in each well. Every concentration was assayed in triplicate and a 12-point titration curve was generated for each antibody.

[2] = biological target: T2, recombinant human FLT3 ECD his-tagged fusion receptor (Sino Biological) (human, UniProt P36888 27-543); test: bio-layer interferometry (Octet QK384); FLT3-his immobilized on anti-penta-HIS (HIS1K) biosensor; 500 nM antibody, 600 s association
T2 construct: Bought protein; also called FLT3-his; His-tagged FLT3; not shown: His tag

[3] = biological target: T3, human FLT3 expressed on cells (human, UniProt P36888 27-993); test: flow cytometry (iQue Screener PLUS) on CHO-S cells transiently expressing human FLT3; AF647 anti-human IgG (H+L) secondary; GeoMean RL1-H; 12-point titration
T3 construct: endogenous on EOL-1 cells and primary CD34+ stem cells in the functional rows; also called CD135
Protocol: as §1

[4] = biological target: T4, cynomolgus FLT3 expressed on CHO-S cells (cynomolgus, UniProt A0A2K5VQ48 27-993); test: flow cytometry (iQue Screener PLUS) on CHO-S cells transiently expressing cynomolgus FLT3; AF647 anti-human IgG (H+L) secondary; GeoMean RL1-H; 12-point titration
T4 construct: whole, on cells
Protocol: as §1

[5] = biological target: T1, mouse FLT3 expressed on CHO-S cells; test: flow cytometry (iQue Screener PLUS) on CHO-S cells transiently expressing mouse FLT3; AF647 anti-human IgG (H+L) secondary; GeoMean RL1-H; 12-point titration
Protocol: as §1

T1 sequence (Q00342 28-1000): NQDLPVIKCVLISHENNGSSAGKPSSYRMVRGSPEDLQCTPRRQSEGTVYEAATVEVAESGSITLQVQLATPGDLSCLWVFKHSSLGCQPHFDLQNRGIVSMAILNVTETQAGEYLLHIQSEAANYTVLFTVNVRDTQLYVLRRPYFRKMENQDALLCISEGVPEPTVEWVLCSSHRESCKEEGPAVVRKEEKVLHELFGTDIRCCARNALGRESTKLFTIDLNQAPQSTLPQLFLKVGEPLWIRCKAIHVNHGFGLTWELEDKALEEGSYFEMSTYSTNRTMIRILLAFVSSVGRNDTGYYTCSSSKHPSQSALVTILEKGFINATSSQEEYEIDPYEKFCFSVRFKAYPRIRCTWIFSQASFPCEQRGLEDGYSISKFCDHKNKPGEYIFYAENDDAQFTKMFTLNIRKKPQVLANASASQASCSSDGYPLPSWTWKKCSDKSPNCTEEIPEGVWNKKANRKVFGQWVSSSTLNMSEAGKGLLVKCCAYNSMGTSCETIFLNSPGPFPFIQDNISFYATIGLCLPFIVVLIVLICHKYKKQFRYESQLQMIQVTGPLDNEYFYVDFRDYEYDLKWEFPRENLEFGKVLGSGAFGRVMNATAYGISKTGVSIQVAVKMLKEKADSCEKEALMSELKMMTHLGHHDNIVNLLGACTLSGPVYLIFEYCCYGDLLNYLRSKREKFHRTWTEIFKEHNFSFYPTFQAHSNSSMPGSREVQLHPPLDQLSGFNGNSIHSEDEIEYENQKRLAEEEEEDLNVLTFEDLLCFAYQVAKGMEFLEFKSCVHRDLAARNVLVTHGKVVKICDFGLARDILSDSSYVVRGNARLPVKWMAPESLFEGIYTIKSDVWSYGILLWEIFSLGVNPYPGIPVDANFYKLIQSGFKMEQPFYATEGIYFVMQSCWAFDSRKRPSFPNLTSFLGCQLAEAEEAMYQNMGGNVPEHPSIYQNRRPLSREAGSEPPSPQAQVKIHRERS

B1: anti-FLT3 antibody 17566 (antibody, human IgG1, kappa, L234A L235A, V domains shown)
VH: QVTLKESGPVLVKPTETLTLTCTVSGFSFNNARMGVNWIRQPPGKALEWLAHIFSNDEKSYSTSLKSRLTISKDISKSQVVLTMTNMDPVDTATYYCARIVGYGSGWRLLGDYWGQGTLVTVSS
VL: AIQMTQSPSSLSASVGDRVTITCRASQGITNDLGWYQQKPGKAPKLLIYAASSLQSGVPSRFSGSGSGTDFTLTISSLQPEDFATYYCLQDYNYPWTFGQGTKVEIKR
notes: Human IgG1-LALA (L234A/L235A) / kappa, germline-corrected variable domains
B1: no binding [1]; binds [2]; binds [3]. For the same binder, the “EC50 (read off the curve)” value [4] was about 0.03 µg/mL.

B2: anti-FLT3 antibody 17497 (antibody, human IgG1, kappa, L234A L235A, V domains shown)
VH: QVQLQESGPGLVKPSGTLSLTCAVSGGSISSTNWWSWVRQPPGKGLEWIGEISHRGSTNYNPSLKSRVTISVDKSKNQFSLKLSSVTAADTAVYYCARDPEMTLYYYYGMDVWGQGTTVTVSS
VL: DIQMTQSPSSLSASVGDRVTITCRASRGIRNDLGWYQQKPGKAPKRLIYAASSLQSGVPSRFSGSGSGTEFTLTISSLQPEDFATYYCLQHNSYPLTFGGGTKVEIKR
notes: Human IgG1-LALA / kappa
For B2, the “EC50 (read off the curve)” value [5] was about 0.01 µg/mL, the binding result [2] was “binds” and the binding result [3] was “binds”. The “EC50 (read off the curve)” value [4] was about 0.01 µg/mL.

B3: anti-FLT3 antibody 17543 (antibody, human IgG1, kappa, L234A L235A, V domains shown)
VH: QVTLKESGPVLVKPTETLTLTCTVSGFSLINARMGVTWIRQPPGKALEWLAHIFSNDEKSYSTSLKSRLTISKDTSKSQVVLTMTNMDPVDTATYYCARIPGYSRGWDYYYYGMDVWGQGTMVTVSS
VL: DIQMTQSPSSLSASVGDRVTITCRASQGIRNDLGWYQQKPGKAPKRLIYAASTLQSGVPSRFSGSGSGTEFTLTISSLQPEDFATYYCLQHNSYPWTFGQGTKVEIKR
notes: Human IgG1-LALA / kappa
With B3 the binding result [1] was “no binding”, the “EC50 (read off the curve)” value [3] was about 0.03 µg/mL and the “EC50 (read off the curve)” value [4] was about 0.04 µg/mL.

B4: anti-FLT3 antibody 17679 (antibody, human IgG1, kappa, L234A L235A, V domains shown)
VH: QVQLQESGPGLVKPSQTLSLTCTVSGGSISSGGYYWSWIRQHPGKGLEWIGYIYYSGRTNYNPSLKSRVTISEDTSKNQFSLKVSSVTAADTAVYYCARDQDGSGWYFDYWGQGALVTVSS
VL: EIVLTQSPATLSLSPGERATLSCRASQSVSSYLAWYQQKPGQAPRLLIYDASNRATGIPARFSGSGSGTDFTLTIRSLEPEDFAVYYCQQRSNWWTFGQGTKVEIKR
notes: Human IgG1-LALA / kappa
B4: no binding [1]; binds [2]; binds [3]. The “EC50 (read off the curve)” value [4] was about 0.04 µg/mL.

B5: anti-FLT3 antibody 17526 (antibody, human IgG1, kappa, L234A L235A, V domains shown)
VH: QVTLKESGPVLVKPTETLTLTCTISGFSLGNARMGVSWIRQPPGKALEWLAHIFSNDEKSYSTSLKSRLTISKDTSKSQVVLTMTNMDPVDTATYYCARIVGYVDWLLPFDYWGQGTLVTVSS
VL: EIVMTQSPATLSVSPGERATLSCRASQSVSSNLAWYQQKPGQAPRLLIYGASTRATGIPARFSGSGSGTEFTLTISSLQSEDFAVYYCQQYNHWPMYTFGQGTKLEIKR
notes: Human IgG1-LALA / kappa
B5: no binding [1]; binds [2]; binds [3]. The “EC50 (read off the curve)” value [4] was about 0.02 µg/mL.

B6: anti-FLT3 antibody 17667 (antibody, human IgG1, kappa, L234A L235A, V domains shown)
VH: QVTLKESGPVLVKPTETLTLTCTVSGFSLSNARMGVSWIRQPPGKALEWLAHIFSNDERSYSPSLKSRLTISKGTSKSQVVLTMTNMDPVDTATYYCARIVGYVDWLLPFDYWGQGTLVTVSS
VL: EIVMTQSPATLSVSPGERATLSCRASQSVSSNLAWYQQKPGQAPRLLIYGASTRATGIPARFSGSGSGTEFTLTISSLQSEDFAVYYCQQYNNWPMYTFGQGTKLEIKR
notes: Human IgG1-LALA / kappa
B6: no binding [1]; binds [2]; binds [3]. The “EC50 (read off the curve)” value [4] was about 0.02 µg/mL.
